In patent US20050037969A1 (ARBOR VITA, published 2005):
Ends that are not written are not given here. * marks the point of attachment. Biotin = O=C1N[C@H]2[C@H](CS[C@H]2CCCCC(=O)*)N1

T1: SP short PDZ-GST fusion protein (Homo sapiens (Human), UniProt O43464 350-435)
T1 construct: The label SP short is not explained in the excerpts
T1 sequence: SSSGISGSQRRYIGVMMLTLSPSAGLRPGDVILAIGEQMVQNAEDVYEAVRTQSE

T2: GST-41.8 kD protein (KIAA0751) PDZ domain fusion protein (Mus musculus (Mouse), UniProt Q9EQZ7 682-763)
T2 construct: also called 41 kd; hypoth; not shown: glutathione S-transferase encoded by vector pGEX-3X (Pharmacia)
T2 sequence: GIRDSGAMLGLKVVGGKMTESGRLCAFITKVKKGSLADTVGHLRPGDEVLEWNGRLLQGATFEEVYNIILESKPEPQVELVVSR

T3: KIAA0807 (PDZ domain)-GST fusion protein (human, UniProt Q6P0Q8 1104-1192)
T3 construct: also called K807; KIAA807; not shown: glutathione S-transferase encoded by vector pGEX-3X (Pharmacia)
T3 sequence: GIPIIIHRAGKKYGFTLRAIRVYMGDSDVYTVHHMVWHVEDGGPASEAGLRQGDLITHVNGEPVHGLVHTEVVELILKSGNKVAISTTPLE


Tests used:
[1] = molecular target: T1, SP short PDZ-GST fusion protein; test: A/G assays
[2] = molecular target: T2, GST-41.8 kD protein (KIAA0751) PDZ …; test: A/G assays
[3] = molecular target: T4, GST-PSD95 fusion protein (PDZ domains 1-3) (human, UniProt P31016 56-395 (rat entry)); test: A/G assays
T4 construct: also called human post-synaptic density protein 95; not shown: glutathione S-transferase encoded by vector pGEX-3X (Pharmacia)

[4] = molecular target: T3, KIAA0807 (PDZ domain)-GST fusion protein; test: A/G plate assays, Table 2 matrix
[5] = molecular target: T4, GST-PSD95 fusion protein (PDZ domains …); test: G assay: biotinylated peptide on plate-bound GST-PDZ fusion, OD 450 nm

T4 sequence (P31016 other isoform, or with tags, fused parts or gaps): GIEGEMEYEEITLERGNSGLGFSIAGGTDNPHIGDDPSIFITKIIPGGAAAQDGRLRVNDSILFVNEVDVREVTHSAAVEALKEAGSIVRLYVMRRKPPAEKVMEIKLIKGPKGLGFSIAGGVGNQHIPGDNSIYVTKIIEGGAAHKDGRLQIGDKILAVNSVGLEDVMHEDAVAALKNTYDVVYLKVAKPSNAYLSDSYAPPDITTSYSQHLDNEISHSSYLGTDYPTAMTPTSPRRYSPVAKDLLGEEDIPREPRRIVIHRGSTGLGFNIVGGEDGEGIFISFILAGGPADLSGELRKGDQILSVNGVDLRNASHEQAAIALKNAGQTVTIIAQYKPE

Binder	binding result [1]	binding result [2]	binding result [3]	binding result [4]	binding result [5]
Biotin-CAISGTSSDRGYGSPRYAEV (also called AA3L-V) [Clasp-4 C-terminal peptide AA3L, biotinylated]	no binding				
Biotin-LNFPLLQGIRVHGMEALGSF (Only the last four residues are seen in the excerpts) [CD114 (G-CSFR) C-terminal peptide AA27L]	no binding	no binding	no binding		
Biotin-ENLAPVTTFGKTNGYIA (also called CD148 (DEP-1)) [CD148 C-terminal peptide AA19L, biotinylated]	no binding	no binding	no binding		
Biotin-KENDYESISDLQQGRDITRL (also called Phosphoprotein Associated with GEMs) [PAG C-terminal peptide AA58L, biotinylated]	no binding	no binding	no binding	binds	
Biotin-QEEDGCSCRFPEEEEGGCEL (cysteine pairing not given here, Marked (S), sticky peptide with high background; also called CDw137 (4-1BB ILA) (S)) [CDw137 (4-1BB ILA) C-terminal peptide AA21L]		no binding	no binding		
Biotin-ISKATPALPTVSISSSAEV (also called AA1L-R) [Clasp-1 C-terminal peptide AA1L, biotinylated]	no binding	no binding			
Biotin-SSSQSLESDGSYQKPSYIL (Only the last four residues are seen in the excerpts) [CD62E C-terminal peptide AA48L]	no binding	no binding	no binding		
Biotin-AWDDSARAAGGQGLHVTAL [LPAP C-terminal peptide AA30L, biotinylated]	no binding	no binding	no binding	binds	

The remaining lines, values ahead:

binding result [1]	binding result [2]	binding result [3]	binding result [4]	binding result [5]	Binder
	no binding	no binding			Biotin-SSGGRARHSYHHPDQDHWC (Marked (S), sticky peptide with high background; also called V-gated Ca2+ channel (S)) [V-gated Ca2+ channel C-terminal peptide AA46L]
no binding	no binding	no binding			Biotin-SMQPDNSSDSDYDLHGAQRL (Only the last four residues are seen in the excerpts) [CD5 C-terminal peptide AA49L]
no binding	no binding	no binding			Biotin-LERTSSVSPSTAEPELSIVF (Only the last four residues are seen in the excerpts) [CC CKR-3 C-terminal peptide AA43L]
no binding	no binding	no binding			Biotin-GTSDMKDLVGNIEQNEHSVI (Only the last four residues are seen in the excerpts) [Mannose receptor C-terminal peptide AA31L]
no binding	no binding			no binding	Biotin-DLGNMEENKKLEENNHKTEA (also called CD166 (CD6L)) [CD166 C-terminal peptide AA20L, biotinylated]
no binding	no binding	no binding			Biotin-SSKSKSSEESQTFFGLYKL (not fully specified, also called FasLigand; Fas ligand) [FasL C-terminal peptide AA23L-M, biotinylated]
no binding	no binding	no binding			Biotin-QFMTADETRNLQNVDMKIGV (also called CD44 (long form)) [CD44 C-terminal peptide AA9L, biotinylated]
no binding	no binding				Biotin-QATSENGHSARQHVVADTEL [CD34 C-terminal peptide AA7L, biotinylated]
